Measurements as given in patent US6710030B1, “Contortrostain (CN) and methods for its use in preventing metastasis and other conditions” (University of Southern California, priority 1993, dated 2004).

System: MDA-MB-435 cells
Assay: Phosphotyrosine immunoblot, MDA-MB-435 cells
Type: cell-based, human
Method: Cell culture, preparation and stimulation—T24 cells were maintained in RPMI 1640 medium containing 5% fetal bovine serum, and MDA-MB-435 and 293 cells were maintained in Dulbecco's modified Eagle's medium with 10% serum at 37° C. in 5% CO2. Cells were washed with phosphate-buffered saline (PBS) and starved in the appropriate serum-free medium for 6 h at 37° C. Cells were detached by brief treatment with 0.05% trypsin/0.02% EDTA in PBS and collected by centrifugation, resuspended in soybean trypsin inhibitor (1 mg/ml in serum-free medium), and washed in 2% bovine serum albumin/serum-free medium. Cells were maintained in suspension for 1 h in 2% bovine serum albumin/serum-free medium at 37° C. with end-over-end agitation. Quiescent cells (3×10^6/ml) were treated with disintegrins or other reagents while in suspension, or were allowed to adhere to Matrigel (Becton Dickinson, Bedford, Mass.) diluted 1:100 with serum-free medium during treatment.
Lysate preparation and immunoprecipitation—Suspended and adherent cells were washed twice with cold PBS and lysed in cold lysis buffer (50 mM Tris, pH 8.0, 150 mM NaCl, 1% Nonidet P-40, 0.5% deoxycholate, 0.1% SDS, protease inhibitor cocktail, 1 mM sodium pyrophosphate, 1 mM sodium orthovanadate, 50 mM sodium fluoride). After 10-15 min incubation on ice, insoluble material was removed by centrifugation at 14,000 RPM in a microcentrifuge for 15 min. Supernatants were collected and total protein concentrations standardized by the BCA protein assay (Pierce, Rockford, Ill.). Immunoprecipitation was carried out by incubating whole cell lysates (200 μg total protein) with 1.25 μg anti-FAK or anti-CAS mAb 4-6 h at 4° C. followed by 20 μl protein G-agarose overnight at 4° C. Immunoprecipitates were washed 4 times in lysis buffer without inhibitors and dissociated by adding SDS-PAGE sample buffer and boiling 5 min. Whole cell lysates (30 μg total protein) or immunoprecipitates were resolved by 7.5% SDS-polyacrylamide gel electrophoresis and transferred to nitrocellulose membranes.
Immunoblotting—Membranes were blocked with 5% nonfat milk/Tris-buffered saline/0.1% Tween 20 (blocking buffer) 1 h at room temperature or overnight at 4° C. Primary antibody incubations were performed in blocking buffer for 1 h at room temperature. After washing in Tris-buffered saline/0.1% Tween 20, membranes were incubated with horseradish peroxidase-conjugated secondary antibody in blocking buffer 1 h at room temperature. Membranes were washed extensively. Inimunoblots were developed using Super Signar West Pico Chemiluminescent Substrate from Pierce. Densitometry was performed using UN-SCAN-IT™, software (Silk Scientific, Orem, Utah))

| Molecule | effect on contortrostatin (10 nM)-induced tyrosine phosphorylation (1 μM, added simultaneously, 10 min) | effect alone on tyrosine phosphorylation (concentrations up to 1 μM) | stimulation of tyrosine phosphorylation (10 μg/ml, data not shown) |
| --- | --- | --- | --- |
| flavoridin: monomeric disintegrin obtained from Sigma (protein) GEECDCGSPSNPCCDAATCKLRPGAQCADGLCCDQCRFKKKRTICRIARGDFPDDRCTGLSNDCPRWNDL | completely abrogated | no effect on tyrosine phosphorylation | – |
| monomeric vitronectin: soluble monomeric vitronectin (protein, UniProt P04004 20-478, looked up) Vitronectin: DQESCKGRCTEGFNVDKKCQCDELCSYYQSCCTDYTAECKPQVTRGDVFTMPEDEYTVYDDGEEKNNATVHEQVGGPSLTSDLQAQSKGNPEQTPVLKPEEEAPAPEVGASKPEGIDSRPETLHPGRPQPPAEEELCSGKPFDAFTDLKNGSLFAFRGQYCYELDEKAVRPGYPKLIRDVWGIEGPIDAAFTRINCQGKTYLFKGSQYWRFEDGVLDPDYPRNISDGFDGIPDNVDAALALPAHSYSGRERVYFFKGKQYWEYQFQHQPSQEECEGSSLSAVFEHFAMMQRDSWEDIFELLFWGRTSAGTRQPQFISRDWHGVPGQVDAAMAGRIYISGMAPRPSLAKKQRFRHRNRKGYRSQRGHSRGRNQNSRRPSRATWLSLFSSEESNLGANNYDDYRMDWLVPATCEPIQSVFFFSGDKYYRVNLRTRRVDTVDPPYPRSIAQYWLGCPAPGHL | – | – | failed to stimulate tyrosine phosphorylation |
